# Patent US20210238260
# Positions count from the first letter of the chain named. Numbers in names are those of the source.
# T1: Factor VIIIa (FVIIIa), P00451
# T1 chain: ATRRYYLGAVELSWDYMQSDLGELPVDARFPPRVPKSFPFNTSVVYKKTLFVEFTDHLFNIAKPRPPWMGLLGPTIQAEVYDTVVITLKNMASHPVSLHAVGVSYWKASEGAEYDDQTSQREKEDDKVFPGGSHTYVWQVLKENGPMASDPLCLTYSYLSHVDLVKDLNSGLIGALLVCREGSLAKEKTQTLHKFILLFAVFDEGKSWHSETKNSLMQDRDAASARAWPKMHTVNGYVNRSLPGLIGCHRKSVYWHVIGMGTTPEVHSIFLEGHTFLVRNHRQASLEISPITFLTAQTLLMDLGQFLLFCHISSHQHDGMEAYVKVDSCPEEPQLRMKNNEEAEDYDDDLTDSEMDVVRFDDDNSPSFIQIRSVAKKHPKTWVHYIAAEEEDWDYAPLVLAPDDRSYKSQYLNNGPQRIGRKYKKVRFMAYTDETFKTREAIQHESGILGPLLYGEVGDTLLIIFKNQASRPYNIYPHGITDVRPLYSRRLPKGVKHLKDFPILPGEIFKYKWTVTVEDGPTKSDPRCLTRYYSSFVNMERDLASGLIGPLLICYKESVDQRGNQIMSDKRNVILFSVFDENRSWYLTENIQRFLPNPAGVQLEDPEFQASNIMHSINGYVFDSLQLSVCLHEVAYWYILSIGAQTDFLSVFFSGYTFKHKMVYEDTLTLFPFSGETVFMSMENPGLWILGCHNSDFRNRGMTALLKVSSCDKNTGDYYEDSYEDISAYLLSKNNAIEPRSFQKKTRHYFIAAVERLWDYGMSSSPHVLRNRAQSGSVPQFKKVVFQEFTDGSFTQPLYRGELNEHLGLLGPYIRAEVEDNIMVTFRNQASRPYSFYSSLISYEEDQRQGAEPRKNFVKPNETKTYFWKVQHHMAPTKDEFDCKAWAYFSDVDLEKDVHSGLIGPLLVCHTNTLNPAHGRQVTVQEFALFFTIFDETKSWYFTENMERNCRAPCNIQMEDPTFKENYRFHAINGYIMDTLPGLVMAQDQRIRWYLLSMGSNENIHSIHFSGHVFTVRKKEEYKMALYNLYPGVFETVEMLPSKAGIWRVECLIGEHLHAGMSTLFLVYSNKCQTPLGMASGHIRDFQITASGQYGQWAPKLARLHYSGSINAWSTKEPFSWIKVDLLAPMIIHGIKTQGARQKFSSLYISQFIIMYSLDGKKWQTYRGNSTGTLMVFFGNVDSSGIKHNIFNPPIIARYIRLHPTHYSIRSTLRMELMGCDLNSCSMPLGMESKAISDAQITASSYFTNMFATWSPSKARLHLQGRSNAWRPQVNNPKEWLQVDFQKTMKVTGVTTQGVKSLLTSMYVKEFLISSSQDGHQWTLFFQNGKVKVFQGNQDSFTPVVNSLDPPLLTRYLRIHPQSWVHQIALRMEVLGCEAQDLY
# B1: FIX of SEQ ID NO: 394, with the replacements R318Y/R338E/T343R (activated, FIXa) (protein)
# chain 1: YNSGKLEEFVQGNLERECMEEKCSFEEAREVFENTERTTEFWKQYVDGDQCESNPCLNGGSCKDDINSYECWCPFGFEGKNCELDVTCNIKNGRCEQFCKNSADNKVVCSCTEGYRLAENQKSCEPAVPFPCGRVSVSQTSKLTR
# chain 2: VVGGEDAKPGQFPWQVVLNGKVDAFCGGSIVNEKWIVTAAHCVETGVKITVVAGEHNIEETEHTEQKRNVIRIIPHHNYNAAINKYNHDIALLELDEPLVLNSYVTPICIADKEYTNIFLKFGSGYVSGWGRVFHKGYSALVLQYLRVPLVDRATCLESTKFRIYNNMFCAGFHEGGRDSCQGDSGGPHVTEVEGTSFLTGIISWGEECAMKGKYGIYTKVSRYVNWIKEKTKLT
# B2: FIXa-N260S/R318Y/R338E/R403E/E410N (protein)
# chain 1: B1 chain 1
# chain 2: B1 chain 2 with N80S, R163T, R223E, E230N
# B3: FIXa-D104N/K106S/I251S/R318Y/R338E/E410N (protein)
# chain 1: B1 chain 1 with D104N, K106S
# chain 2: B1 chain 2 with I71S, R163T, E230N
# B4: FIXa-Y155F/K247N/N249S/R318Y/R338E/E410N (protein)
# chain 1: B1 chain 1
# chain 2: B1 chain 2 with K67N, N69S, R163T, E230N
# B5: FIXa-K247N/N249S/R318Y/R338E/R403E/E410N (protein)
# chain 1: B1 chain 1
# chain 2: B1 chain 2 with K67N, N69S, R163T, R223E, E230N
# B6: FIXa-D104N/K106S/Y155F/K228N/K247N/N249S (protein)
# chain 1: B1 chain 1 with D104N, K106S
# chain 2: B1 chain 2 with K48N, K67N, N69S, Y138R, E158R, R163T
# B7: FIXa-K247N/N249S/R318Y/R338E/E410N (protein)
# chain 1: B1 chain 1
# chain 2: B1 chain 2 with K67N, N69S, R163T, E230N
# B8: FIXa-Y259F/K265T/Y345T (protein)
# chain 1: B1 chain 1
# chain 2: B1 chain 2 with Y79F, K85T, Y138R, E158R, R163T, Y165T
# B9: FIXa-Y155F/K228N/K247N/N249S (protein)
# chain 1: B1 chain 1
# chain 2: B1 chain 2 with K48N, K67N, N69S, Y138R, E158R, R163T
# B10: FIXa-R318Y/R338E/E410N/T412V (protein)
# chain 1: B1 chain 1
# chain 2: B1 chain 2 with R163T, E230N, T232V
# B11: FIXa-I251S/R318Y/R338E/E410N (protein)
# chain 1: B1 chain 1
# chain 2: B1 chain 2 with I71S, R163T, E230N
# B12: FIXa-R318Y/R338E/E410S (protein)
# chain 1: B1 chain 1
# chain 2: B1 chain 2 with R163T, E230S
# B13: FIXa-D104N/K106S/K228N/K247N/N249S (protein)
# chain 1: B1 chain 1 with D104N, K106S
# chain 2: B1 chain 2 with K48N, K67N, N69S, Y138R, E158R, R163T
# B14: FIXa-K228N/K247N/N249S (protein)
# chain 1: B1 chain 1
# chain 2: B1 chain 2 with K48N, K67N, N69S, Y138R, E158R, R163T
# B15: FIXa-Y155F/R318Y/R338E/N346D/R403E/E410N (protein)
# chain 1: B1 chain 1
# chain 2: B1 chain 2 with R163T, N166D, R223E, E230N
# B16: FIXa-D104N/K106S/N260S/R318Y/R338E/R403E/E410N (protein)
# chain 1: B1 chain 1 with D104N, K106S
# chain 2: B1 chain 2 with N80S, R163T, R223E, E230N
# B17: FIXa-A103N/N105S/K247N/N249S/R318Y/R338E/R403E/E410N (protein)
# chain 1: B1 chain 1 with A103N, N105S
# chain 2: B1 chain 2 with K67N, N69S, R163T, R223E, E230N
# Tests used:
# [1] = target: T1, Factor VIIIa (FVIIIa), P00451
# [2] = target: plasma purified human AT-III (antithrombin III); test: AT-III/UFH inhibition K0.5, ratio to Catalyst Biosciences WT FIXa
# [3] = target: T2, plasma purified human antithrombin III (AT-III), as complex with unfractionated heparin; test: ratio of K0.5 (lower limit) to Catalyst Biosciences WT FIXa, AT-III/UFH inhibition
# [4] = target: T2, plasma purified human antithrombin III …; test: ratio of K0.5 to Catalyst Biosciences WT FIXa, AT-III/UFH inhibition
# Sequence of Factor X, P00742 (P00742 whole entry, looked up): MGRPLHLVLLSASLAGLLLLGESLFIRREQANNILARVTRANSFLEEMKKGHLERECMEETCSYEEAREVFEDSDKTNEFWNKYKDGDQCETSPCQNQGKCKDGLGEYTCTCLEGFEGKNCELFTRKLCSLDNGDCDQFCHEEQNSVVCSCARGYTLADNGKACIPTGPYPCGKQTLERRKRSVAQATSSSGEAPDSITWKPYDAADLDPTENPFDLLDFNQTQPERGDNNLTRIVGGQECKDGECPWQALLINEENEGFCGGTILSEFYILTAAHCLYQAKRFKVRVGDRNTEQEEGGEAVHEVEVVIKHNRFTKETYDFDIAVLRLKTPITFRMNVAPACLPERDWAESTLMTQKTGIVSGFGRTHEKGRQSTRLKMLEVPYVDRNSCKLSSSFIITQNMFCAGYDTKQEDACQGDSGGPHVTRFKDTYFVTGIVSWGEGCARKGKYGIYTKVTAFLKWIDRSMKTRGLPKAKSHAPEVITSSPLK
# Sequence of Factor X (FX), P00742 (P00742 whole entry, looked up): as above
Protein,K0.5-mut/K0.5-wt [2],"% of WT kcat/KM (Factor X, P00742)","kcat/KM (Factor X, P00742)","kcat of FX activation by FIXa (Xase complex with FVIIIa, PC/PS vesicles, Ca2+) (Factor X (FX), P00742)",K0.5-mut/K0.5-wt [4],"KM (Factor X, P00742)","% of WT kcat/KM (Factor X (FX), P00742)","kcat (Factor X (FX), P00742)","kcat/KM (Factor X (FX), P00742)",further results
B1,–,–,–,–,–,–,–,–,–,"FIX activity, mean, Test 1, FVIIIa 0 ng/mL (no cofactor, baseline) [1]: 1.24; FIX activity, mean, Test 1, FVIIIa 5 ng/mL [1]: 278; FIX activity, mean, Test 2, FVIIIa 0 ng/mL (no cofactor, baseline) [1]: 1.25; FIX activity, mean, Test 2, FVIIIa 10 ng/mL [1]: 479; FIX activity, mean, Test 3, FVIIIa 0 ng/mL (no cofactor, baseline) [1]: 1.28; FIX activity, mean, Test 3, FVIIIa 15 ng/mL [1]: 622; Fold-increase after FVIIIa addition, Test 1 (5 ng/mL) [1]: 225 fold; Fold-increase after FVIIIa addition, Test 2 (10 ng/mL) [1]: 384 fold; Fold-increase after FVIIIa addition, Test 3 (15 ng/mL) [1]: 486 fold; Ratio (CB2679d vs BeneFIX FIX) of FIX activity, Test 1, FVIIIa 0 ng/mL (no cofactor) [1]: 1.3; Ratio (CB2679d vs BeneFIX FIX) of FIX activity, Test 1, FVIIIa 5 ng/mL [1]: 2; Ratio (CB2679d vs BeneFIX FIX) of FIX activity, Test 2, FVIIIa 0 ng/mL (no cofactor) [1]: 1.4; Ratio (CB2679d vs BeneFIX FIX) of FIX activity, Test 2, FVIIIa 10 ng/mL [1]: 2; Ratio (CB2679d vs BeneFIX FIX) of FIX activity, Test 3, FVIIIa 0 ng/mL (no cofactor) [1]: 1.3; Ratio (CB2679d vs BeneFIX FIX) of FIX activity, Test 3, FVIIIa 15 ng/mL [1]: 2; Cofactor-Dependent Indirect kcat/KM (Factor X (FX), P00742): 1.2e+08 M⁻¹ s⁻¹; Fold Change, In Vitro Assays: Pro-coagulant Activity (Factor X (FX), P00742): 2.8 fold; Fold Increase over BeneFIX FIX (Cofactor-Dependent Indirect kcat/KM) (Factor X (FX), P00742): 2.8 fold"
B2,> 517,117%,5.3e+07 M⁻¹ s⁻¹,3.8 s⁻¹,–,–,–,–,–,"K0.5-mut/K0.5-wt [3]: 517; kcat (Factor X, P00742): 3.8 s⁻¹; KM (Factor X (FX), P00742): 0.0724 µM"
B3,464,300%,1.3e+08 M⁻¹ s⁻¹,–,464,0.0243 µM,–,–,–,–
B4,200,674%,3e+08 M⁻¹ s⁻¹,–,200,0.0153 µM,717%,4.3 s⁻¹,3.3e+08 M⁻¹ s⁻¹,–
B5,418,341%,1.5e+08 M⁻¹ s⁻¹,–,418,0.0392 µM,331%,5.8 s⁻¹,1.5e+08 M⁻¹ s⁻¹,–
B6,1.6,142%,6.3e+07 M⁻¹ s⁻¹,4.7 s⁻¹,1.6,0.0753 µM,137%,4.7 s⁻¹,6.3e+07 M⁻¹ s⁻¹,–
B7,78.3,516%,2.3e+08 M⁻¹ s⁻¹,–,78.3,0.0166 µM,501%,3.8 s⁻¹,2.3e+08 M⁻¹ s⁻¹,–
B8,0.3,–,–,–,0.3,–,–,–,–,–
B9,1.4,118%,5.3e+07 M⁻¹ s⁻¹,4.3 s⁻¹,1.4,–,–,–,–,"kcat (Factor X, P00742): 4.3 s⁻¹; KM (Factor X (FX), P00742): 0.0792 µM"
B10,252,536%,2.4e+08 M⁻¹ s⁻¹,5.2 s⁻¹,–,–,–,–,–,"K0.5-mut/K0.5-wt [3]: 517; kcat (Factor X, P00742): 6.3 s⁻¹; KM (Factor X (FX), P00742): 0.0297 µM"
B11,303,851%,3.8e+08 M⁻¹ s⁻¹,–,303,0.0162 µM,849%,6.2 s⁻¹,3.9e+08 M⁻¹ s⁻¹,–
B12,279,730%,3.3e+08 M⁻¹ s⁻¹,–,279,0.0164 µM,–,–,–,–
B13,2.1,–,–,1.7 s⁻¹,2.1,–,–,1.7 s⁻¹,–,–
B14,4.4,86%,3.8e+07 M⁻¹ s⁻¹,–,4.4,0.0945 µM,–,–,–,–
B15,> 517,139%,6.2e+07 M⁻¹ s⁻¹,6.4 s⁻¹,–,–,–,–,–,"K0.5-mut/K0.5-wt [3]: 517; kcat (Factor X, P00742): 6.4 s⁻¹; KM (Factor X (FX), P00742): 0.1 µM"
B16,> 517,196%,8.8e+07 M⁻¹ s⁻¹,5.4 s⁻¹,–,–,–,–,–,"K0.5-mut/K0.5-wt [3]: 517; kcat (Factor X, P00742): 5.4 s⁻¹; KM (Factor X (FX), P00742): 0.0611 µM"
B17,129,232%,1e+08 M⁻¹ s⁻¹,–,129,0.0397 µM,324%,4.1 s⁻¹,1.5e+08 M⁻¹ s⁻¹,–
